In patent US20110104789A1:

Key:
[1] = target: human EF-2 mutant (G717R) (human) (UniProt P13639); assay: cell-based or functional assay
[2] = target: human elongation factor 2 (EF-2) (human) (UniProt P13639); assay: cell-based or functional assay

DT-A(176) (from UniProt P00587 26-210) (enzyme)
GFP-positive cells relative to control vector pNL-GFP-RRE-SA, DT-resistant EF-2 mutant cell line 5H7 [1]: 70 to 80%

DT-A(E148D) (from UniProt P00587 26-210) (enzyme)
GFP-positive cells relative to control vector pNL-GFP-RRE-SA, DT-resistant EF-2 mutant cell line 5H7 [1]: 70 to 80%

DT-A(E148S) (from UniProt P00587 26-210) (enzyme)
GFP-positive cells relative to control vector pNL-GFP-RRE-SA, DT-resistant EF-2 mutant cell line 5H7 [1]: 70 to 80%

DT-AΔN (from UniProt P00587 39-210) (enzyme)
GFP-positive cells relative to control vector pNL-GFP-RRE-SA, DT-resistant EF-2 mutant cell line 5H7 [1]: 70 to 80%

wild type diphtheria toxin A chain (DT-A) (from UniProt P00587 26-210) (enzyme)
GFP-positive cells after cotransfection with pNL-DT-GFP-RRE-SA plus pCMVΔR8.2, EF-2 mutant clone 4H10 (FIG. 4A) [1]: 14% | GFP-positive cells after cotransfection with pNL-DT-GFP-RRE-SA plus pCMVΔR8.2, EF-2 mutant clone 5E12 (FIG. 4A) [1]: 9% | GFP-positive cells after cotransfection with pNL-DT-GFP-RRE-SA plus pCMVΔR8.2, EF-2 mutant clone 5H7 (FIG. 4A) [1]: 46% | GFP-positive cells after cotransfection with pNL-DT-GFP-RRE-SA plus pCMVΔR8.2, EF-2 mutant clone AB1 (FIG. 4A) [1]: 24% | GFP-positive cells after cotransfection with pNL-DT-GFP-RRE-SA plus pCMVΔR8.2, EF-2 mutant clone CB2 (FIG. 4A) [1]: 28% | GFP-positive cells, 5H7 cells (FIG. 4B; control pNL-DT(R)-GFP-RRE-SA gave 64%) [1]: 54% | share of 5H7 cells surviving the toxin [1]: > 80% | GFP-positive cells after cotransfection with pNL-DT-GFP-RRE-SA plus pCMVΔR8.2, parental HEK293T cells (FIG. 4A) [2]: 0% | GFP-positive cells, HEK293T cells (FIG. 4B; control pNL-DT(R)-GFP-RRE-SA gave 43%) [2]: 0%
